Experimental data: patent US20030170726A1, “Peptides sequences comprising one or several protein binding units of the ena/vasp family and the uses thereof” (priority 2000, published 2003)

Assays:
[1] = tested on: proteins of the Ena/VASP family; test: Actin polymerisation on beads coated with proteins binding to the Ena/VASP family (beads of the invention), in lysed cell supernatants; format: biochemical, mammal, in particular human; details: for inhibition of actin polymerisation detected using the beads of the invention: substance added to lysed mammal, in particular human, cell supernatants
From the text: a stage of placing the tested molecule in the presence of a reagent as defined above, in a medium containing actin and the elements necessary for actin polymerisation defined above, in particular in an extract of lysed cell supernatant,
followed by the optional detection of an inhibition or an activation of the process of actin polymerisation at the surface of said reagent, in comparison to a control (namely a medium as described above not containing the tested molecule, and in which is found said reagent), corresponding respectively to an effect of inhibition or stimulation of the tested molecule on the formation of the actin cytoskeleton by the mechanism involving the abovementioned protein or peptide bond or their derived sequence, with a protein of the Ena protein/VASP family.
The abovementioned medium in which the tested molecule is placed in the presence of said reagent, advantageously contains a compound labelled in particular by fluorescence, making it possible to detect actin polymerisation on said reagent. By way of illustration, the abovementioned labelled compound is a fluorescent derivative of actin, such as actin-rhodamine (commercially available), making it possible to visualize actin polymerisation by epifluorescence microscopy.
The GST-ActA-Pro protein was adsorbed onto 500 nm latex beads (Polyscience Inc, 400 Valley Road, Warrington Pa., USA) according to the manufacturers' instructions.

[2] = tested on: Arp2/3 complex; test: Actin polymerisation on beads coated with WASP protein, in lysed cell supernatants; format: biochemical; details: substance added to lysed mammal, in particular human
From the text: a stage of placing, in a medium containing actin and the elements necessary for actin polymerisation i.e. the Arp2/3 complex, in particular in an extract of lysed cell supernatant, the tested molecule with a reagent comprising WASP family proteins in the eucaryotic cells, in particular human or of other mammal cells, or insect cells, or from micro-organisms such as yeasts, or peptide fragments of these WASP family proteins, said peptide fragments having the property of the WASP family proteins to polymerise the actin by inducing cellular motility, or peptide sequences derived from WASP family proteins or the abovementioned peptide fragments, in particular by substitution of one or more amino acids of these fragments, said derived sequences having the abovementioned property of the WASP family proteins and said fragments of the latter, said abovementioned WASP family proteins, or peptide fragments or derived sequences, being bound or adsorbed to a support as defined above,
followed by the optional detection of an inhibition or an activation of the process of actin polymerisation at the surface of said reagent, in comparison to a control, corresponding respectively to an effect of inhibition or of stimulation of the tested molecule on the formation of the actin cytoskeleton by the mechanism involving the bonding of said WASP family proteins, or abovementioned peptide fragments or derived sequences, with the Arp2/3 complex.

[3] = tested on: mitochondria carrying zyxin at their surface; test: Actin polymerisation in mitochondria carrying zyxin at their surface; format: cell-based
From the text: Furthermore, as a number of processes dependant on actin polymerisation require the recruitment and activation of the Arp2/3 complex, the Inventors have searched for the presence of this complex in the mitochondria carrying zyxin at their surface.

| Molecule | inhibition of actin polymerisation detected using the beads of the invention [1] | inhibition of actin polymerisation detected using beads coated with WASP protein [2] | inhibition of actin polymerisation in the mitochondria [3] | nucleation of actin by the coated beads ([1]; protein adsorbed onto 500 nm latex beads, added to extracts prepared from cells) |
| --- | --- | --- | --- | --- |
| ActA-Pro: ActA protein fragment of Listeria monocytogenes, 350 amino acids, positions 235 to 584 of SEQ ID NO 2 | inhibited | not inhibited |  |  |
| N-WASP: N-WASP protein, approximately 45% sequence identity with human WASP protein; interacts with the Arp2/3 complex (protein, UniProt O00401 2-505, looked up) Actin nucleation-promoting …: SSVQQQPPPPRRVTNVGSLLLTPQENESLFTFLGKKCVTMSSAVVQLYAADRNCMWSKKCSGVACLVKDNPQRSYFLRIFDIKDGKLLWEQELYNNFVYNSPRGYFHTFAGDTCQVALNFANEEEAKKFRKAVTDLLGRRQRKSEKRRDPPNGPNLPMATVDIKNPEITTNRFYGPQVNNISHTKEKKKGKAKKKRLTKADIGTPSNFQHIGHVGWDPNTGFDLNNLDPELKNLFDMCGISEAQLKDRETSKVIYDFIEKTGGVEAVKNELRRQAPPPPPPSRGGPPPPPPPPHNSGPPPPPARGRGAPPPPPSRAPTAAPPPPPPSRPSVAVPPPPPNRMYPPPPPALPSSAPSGPPPPPPSVLGVGPVAPPPPPPPPPPPGPPPPPGLPSDGDHQVPTTAGNKAALLDQIREGAQLKKVEQNSRPVSCSGRDALLDQIRQGIQLKSVADGQESTPPTPAPTSGIVGALMEVMQKRSKAIHSSDEDEDEDDEEDFEDDDEWED | not inhibited | inhibited |  |  |
| WASP: WASP protein, expressed from the WAS gene mutated in Wiskott-Aldrich Syndrome; interacts with the Arp2/3 complex (protein, UniProt P42768 2-502, looked up) Actin nucleation-promoting …: SGGPMGGRPGGRGAPAVQQNIPSTLLQDHENQRLFEMLGRKCLTLATAVVQLYLALPPGAEHWTKEHCGAVCFVKDNPQKSYFIRLYGLQAGRLLWEQELYSQLVYSTPTPFFHTFAGDDCQAGLNFADEDEAQAFRALVQEKIQKRNQRQSGDRRQLPPPPTPANEERRGGLPPLPLHPGGDQGGPPVGPLSLGLATVDIQNPDITSSRYRGLPAPGPSPADKKRSGKKKISKADIGAPSGFKHVSHVGWDPQNGFDVNNLDPDLRSLFSRAGISEAQLTDAETSKLIYDFIEDQGGLEAVRQEMRRQEPLPPPPPPSRGGNQLPRPPIVGGNKGRSGPLPPVPLGIAPPPPTPRGPPPPGRGGPPPPPPPATGRSGPLPPPPPGAGGPPMPPPPPPPPPPPSSGNGPAPPPLPPALVPAGGLAPGGGRGALLDQIRQGIQLNKTPGAPESSALQPPPQSSEGLVGALMHVMQKRSRAIHSSDEGEDQAGDEDEDDEWDD | not inhibited | inhibited | does not inhibit |  |
| GST-ActA-Pro: recombinant protein composed of GST (237 residues) and proline rich and carboxy-terminal central parts of ActA (350 residues, SEQ ID NO 6) (protein) DFPPPPTDEELRLALPETPMLLGFNAPATSEPSSFEFPPPPTDEELRLALPETPMLLGFNAPATSEPSSFEFPPPPTEDELEIIRETASSLDSSFTRGDLASLRNAINRHSQNFSDFPPIPTEEELNGRGGRPTSEEFSSLNSGDFTDDENSETTEEEIDRLADLRDRGTGKHSRNAGFLPLNPFASSPVPSLSPKVSKISAPALISDITKKTPFKNPSQPLNVFNKKTTTKTVTKKPTPVKTAPKLAELPATKPQETVLRENKTPFIEKQAETNKQSINMPSLPVIQKEATESDKEEMKPQTEEKMVEESESANNANGKNRSAGIEEGKLIAKSAEDEKAKEEPGNHTT |  |  |  | capable of nucleating the actin |
